According to US20210155691A1, “METHODS OF PREVENTING OR TREATING NON-HEMATOPOIETIC SLAMF7 POSITIVE AND SLAMF7 NEGATIVE CANCERS” (ADAERATA, LIMITED PARTNERSHIP, priority 2018, published 2021):

Key:
thymocytes = test: Induction of apoptosis in thymocytes (annexin V); format: cell-based, mouse; conditions: 1 μM; 10 hours at 37° C.; thymocytes from C57BL/6 mice; data not shown
[1] = biological target: T1, mouse CD11b (integrin alphaM, alpha subunit of Mac-1) (mouse, UniProt P05555 17-1153); test: anti-CD11b immunoprecipitation from BMDM lysates, mass spectrometry
T1 construct: whole, on cells; Endogenous protein in macrophage lysates; It forms Mac-1 together with CD18; also called Mac-1 (CD11b); CR3 alpha subunit
T1 sequence (P05555 17-1153): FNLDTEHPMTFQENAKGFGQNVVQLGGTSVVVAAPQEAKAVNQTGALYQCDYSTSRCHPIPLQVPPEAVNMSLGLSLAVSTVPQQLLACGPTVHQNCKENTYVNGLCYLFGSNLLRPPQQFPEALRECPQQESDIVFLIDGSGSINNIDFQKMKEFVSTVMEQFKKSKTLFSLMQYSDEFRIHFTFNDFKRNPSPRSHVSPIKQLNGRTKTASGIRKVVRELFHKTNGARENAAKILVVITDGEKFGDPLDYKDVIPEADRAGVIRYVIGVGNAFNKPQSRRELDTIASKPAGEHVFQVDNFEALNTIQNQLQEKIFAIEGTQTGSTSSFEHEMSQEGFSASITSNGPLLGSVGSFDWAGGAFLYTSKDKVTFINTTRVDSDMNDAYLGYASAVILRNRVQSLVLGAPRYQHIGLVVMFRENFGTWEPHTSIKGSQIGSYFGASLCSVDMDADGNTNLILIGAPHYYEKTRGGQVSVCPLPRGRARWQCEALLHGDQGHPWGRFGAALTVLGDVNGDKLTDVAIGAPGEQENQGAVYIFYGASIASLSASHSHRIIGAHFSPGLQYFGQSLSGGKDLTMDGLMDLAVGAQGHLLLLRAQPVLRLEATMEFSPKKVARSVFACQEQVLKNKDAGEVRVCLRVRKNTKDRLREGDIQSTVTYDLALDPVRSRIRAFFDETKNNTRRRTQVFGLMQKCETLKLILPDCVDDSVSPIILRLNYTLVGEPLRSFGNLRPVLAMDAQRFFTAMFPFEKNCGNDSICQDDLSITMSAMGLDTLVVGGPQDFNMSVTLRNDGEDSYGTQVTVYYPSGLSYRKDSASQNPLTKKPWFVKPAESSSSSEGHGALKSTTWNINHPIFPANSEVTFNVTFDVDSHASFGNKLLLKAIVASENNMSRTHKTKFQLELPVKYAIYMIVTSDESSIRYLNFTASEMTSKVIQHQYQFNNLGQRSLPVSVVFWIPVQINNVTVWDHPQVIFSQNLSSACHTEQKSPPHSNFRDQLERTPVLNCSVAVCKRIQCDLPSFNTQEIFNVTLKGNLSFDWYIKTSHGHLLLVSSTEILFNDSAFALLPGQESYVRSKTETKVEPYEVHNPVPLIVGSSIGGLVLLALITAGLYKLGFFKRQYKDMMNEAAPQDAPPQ
Description: Authenticated cells. (FIG. 9D) Lysates from the mouse macrophage cell line RAW264.7 expressing GFP alone or in combination with a FLAG-tagged version of mouse SLAMF7 (FLAG-SLAMF7) were immunoprecipitated with anti-FLAG. They were then probed by immunoblotting with anti-CD11b (Mac-1) or anti-SLAMF7. Total cell lysates were analyzed in parallel. (FIG. 9E) Co-localization of SLAMF7 and CD11b in RAW264.7 cells expressing GFP alone or with FLAG-SLAMF7 assessed by immunofluorescence. Semi-confluent RAW264.7 cells expressing GFP alone (bottom) or in combination with FLAG-SLAMF7 (top) were fixed and stained with antibodies against FLAG, CD11b (Mac-1) or CD18, as detailed in Example 1. Staining was detected by confocal microscopy. Scale bar, 5 μm. […] (FIG. 9F) As in FIG. 9E, except that only RAW264.7 cells expressing FLAG-SLAMF7 were analyzed and that antibodies coupled to different fluorophores were used. […] (FIGS. 9G-A and 9G-B) RAW264.7 derivatives expressing GFP alone or in combination with FLAG-SLAMF7 were analyzed by flow cytometry, using antibodies directed against FLAG and SLAMF7 (dotted lines). […]
Immunoprecipitations, mass spectrometry, immunoblots. […] In brief, immunoprecipitated proteins were digested with trypsin (Promega, Madison, Wis.) and analyzed by LC-MS/MS on a LTQ Orbitrap™ Velos (ThermoFisher Scientific, Bremen, Germany) equipped with a Proxeon Nanoelectrospray™ ion source. […]

`C[C@@H]1C[C@H]2[C@@H]3CCC4=CC(=O)C=C[C@]4(C)[C@@]3(F)[C@@H](O)C[C@]2(C)[C@@]1(O)C(=O)CO` [dexamethasone] was tested, and the “cells becoming apoptotic (annexin V-positive)” value (thymocytes) was “about 70%”.

B1: mouse CD64 (Fc receptor) (receptor, UniProt P26151 25-404, looked up)
chain: EVVNATKAVITLQPPWVSIFQKENVTLWCEGPHLPGDSSTQWFINGTAVQISTPSYSIPEASFQDSGEYRCQIGSSMPSDPVQLQIHNDWLLLQASRRVLTEGEPLALRCHGWKNKLVYNVVFYRNGKSFQFSSDSEVAILKTNLSHSGIYHCSGTGRHRYTSAGVSITVKELFTTPVLRASVSSPFPEGSLVTLNCETNLLLQRPGLQLHFSFYVGSKILEYRNTSSEYHIARAEREDAGFYWCEVATEDSSVLKRSPELELQVLGPQSSAPVWFHILFYLSVGIMFSLNTVLYVKIHRLQREKKYNLEVPLVSEQGKKANSFQQVRSDGVYEEVTATASQTTPKEAPDGPRSSVGDCGPEQPEPLPPSDSTGAQTSQS
notes: whole, on cells; Endogenous protein in macrophage lysates
B1: no binding [1].

B2: mouse CD16 (Fc receptor) (receptor, UniProt P08508 31-261, looked up)
chain: ALPKAVVKLDPPWIQVLKEDMVTLMCEGTHNPGNSSTQWFHNGRSIRSQVQASYTFKATVNDSGEYRCQMEQTRLSDPVDLGVISDWLLLQTPQRVFLEGETITLRCHSWRNKLLNRISFFHNEKSVRYHHYKSNFSIPKANHSHSGDYYCKGSLGSTQHQSKPVTITVQDPATTSSISLVWYHTAFSLVMCLLFAVDTGLYFYVRRNLQTPREYWRKSLSIRKHQAPQDK
notes: as for B1
B2: no binding [1].
